Data from US4016042A, “Substrate for the quantitative determination of enzymes” (Pentapharm A.G., priority 1974, dated 1977).

Substrate: N=C(N)NCCC[C@H](NC(=O)[C@H](Cc1ccccc1)NC(=O)[C@@H]1CCCN1C(=O)c1ccccc1)C(=O)Nc1ccc([N+](=O)[O-])cc1
Experiment: Km and vmax determination with substrate (Lineweaver-Burk), plasmin
Assay type: biochemical
Settings: other: plasmin; substrate concentration varied, enzyme constant; measured at 405 nm
Procedure: As is evident from equation (2) constants Km and k3 determine the activity of the enzyme substrate for a given enzyme. For determining these constants the following procedure is followed:
The enzyme and the substrate are mixed in a buffer solution, and the reaction is followed spectrophotometrically for 2 to 30 minutes. The concentration of substrate [S] is varied, whereas the enzyme concentration [E] is kept constant. If the extinction (OD) (= optical density) is plotted in a co-ordinate system as a function of time, a curve is obtained the tangent of which (difference in extinction per minute, Δ OD/minute, from which the quantity in μmoles of pNA/min (v) can be calculated) at time zero corresponds to the ideal course of the hydrolysis. By means of this tangent the initial rate of the hydrolysis can be determined.
If 1/v is plotted against 1/[S], a Lineweaver-Burk diagram (cf. "Kurzes Lehrbuch der Biochemie" by P. KARSON, Georg Thieme-Verlag, Stuttgart, 1967, p. 70) is obtained from which vmax and Km can be determined graphically.
Km and k3 = vmax /E were determined with N^α-Bz-Pro-Phe-Arg-pNA^. HCl (i.e. the substrate prepared according to Example 1) for plasma kallikrein, trypsin, plasmin and thrombin.

B1: plasmin (Homo sapiens) (protein)
chain: VVGGCVAHPHSWPWQVSLRTRFGMHFCGGTLISPEWVLTAAHCLEKSPRPSSYKVILGAHQEVNLEPHVQEIEVSRLFLEPTRKDIALLKLSSPAVITDKVIPACLPSPNYVVADRTECFITGWGETQGTFGAGLLKEAQLPVIENKVCNRYEFLNGRVQSTELCAGHLAGGTDSCQGDSGGPLVCFEKDKYILQGVTSWGLGCARPNKPGVYVRVSRFVTWIEGVMRNN
For B1, the Km was 140 µM.
